US20210087291A1 (Hoffmann-La Roche, published 2021)
Residue numbers refer to the chain shown, from its start.

Assays:
[1] = molecular target: T1, cynomolgus FolR1 ECD-AcTev-Fcknob-Avi tag + Fc hole, biotinylated monomeric Fc fusion (cynomolgus, UniProt P0DOX5 223-449 = IgG part); experiment: SPR ProteOn, Fab analyte;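 note: recombinant antigens immobilized, purified Fab two-fold dilutions injected in parallel channels, 200 s association and 600 s dissociation, buffer-only channel as in-line reference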
T1 construct: also called cyFolR1; cyno FolR1-Fc
Protocol: (§1) Immobilization of antigens (ligand): Recombinant antigens were diluted with PBST (10 mM phosphate, 150 mM sodium chloride pH 7.4, 0.005% Tween 20) to 10 μg/ml, then injected at 30 μl/minute in vertical orientation.
(§2) Injection of analytes: For ‘one-shot kinetics’ measurements, injection direction was changed to horizontal orientation, two-fold dilution series of purified Fab (varying concentration ranges) were injected simultaneously along separate channels 1-5, with association times of 200 s, and dissociation times of 600 s. Buffer (PBST) was injected along the sixth channel to provide an “in-line” blank for referencing. Association rate constants (kₒₙ) and dissociation rate constants (koff) were calculated using a simple one-to-one Langmuir binding model in ProteOn Manager v3.1 software by simultaneously fitting the association and dissociation sensorgrams. The equilibrium dissociation constant (KD) was calculated as the ratio koff/kₒₙ.

[2] = molecular target: T2, human FolR3 ECD-AcTev-Fcknob-Avi tag + Fc hole, biotinylated monomeric Fc fusion (human, UniProt P0DOX5 223-449 = IgG part); experiment: SPR ProteOn, Fab analyte;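 note: recombinant antigens immobilized, purified Fab two-fold dilutions injected in parallel channels, 200 s association and 600 s dissociation, buffer-only channel as in-line reference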
T2 construct: also called huFolR3; FolR3-Fc
Protocol: as §1, §2

[3] = molecular target: T3, human FolR2 ECD-AcTev-Fcknob-Avi tag + Fc hole, biotinylated monomeric Fc fusion (human, UniProt P0DOX5 223-449 = IgG part); experiment: SPR ProteOn, Fab analyte;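 note: recombinant antigens immobilized, purified Fab two-fold dilutions injected in parallel channels, 200 s association and 600 s dissociation, buffer-only channel as in-line reference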
T3 construct: also called huFolR2; FolR2-Fc
Protocol: as §1, §2

[4] = molecular target: T4, human FolR1 ECD-AcTev-Fcknob-Avi tag + Fc hole, biotinylated monomeric Fc fusion (human, UniProt P0DOX5 223-449 = IgG part); experiment: SPR ProteOn, Fab analyte;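 note: recombinant antigens immobilized, purified Fab two-fold dilutions injected in parallel channels, 200 s association and 600 s dissociation, buffer-only channel as in-line reference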
T4 construct: also called huFolR1; huFolR1-Fc
Protocol: as §1, §2

[5] = molecular target: T3, human FolR2 ECD-AcTev-Fcknob-Avi tag + …; experiment: SPR, IgG single injection
[6] = molecular target: T5, murine FolR1 ECD-AcTev-Fcknob-Avitag + Fc hole, biotinylated monomeric Fc fusion (murine, UniProt P0DOX5 223-449 = IgG part); experiment: SPR, IgG single injection
T5 construct: also called muFolR1; murine FolR1-Fc

[7] = molecular target: human FolR2 on transiently transfected HEK cells (human, UniProt P14207 17-230); experiment: flow cytometry on HEK cells transiently transfected with human FolR2, anti-human secondary antibody; concentration not given
[8] = molecular target: T2, human FolR3 ECD-AcTev-Fcknob-Avi tag + …; experiment: SPR, IgG single injection
[9] = molecular target: T6, human TIM-3 on cells (human, UniProt Q8TDQ0 22-301); experiment: flow cytometry, human CD14+ monocytes donor2
T6 construct: also called CHO-Tim3; rec CHOK1 cells expressing huTIM-3
Description: (§3) CD14+ Monocytes were isolated from anticoagulated peripheral blood of healthy donors by density gradient centrifugation using Ficoll-Paque (GE Healthcare) (see General Protocols in the User Manuals or visit www.miltenyibiotec.com/protocols) and subsequent positive selection via CD14 MicroBeads. First the CD14+ cells are magnetically labeled with CD14 MicroBeads. Then the cell suspension is loaded onto a MACS® Column which is placed in the magnetic field of a MACS Separator. The magnetically labeled CD14+ cells are retained in the column. The unlabeled cells run through, this cell fraction is depleted of CD14+ cells. After removal of the column from the magnetic field, the magnetically retained CD14+ cells can be eluted as the positively selected cell fraction. After centrifugation at 200×g for 10 min at room temperature the monocytes were harvested and used directly in binding assay or resuspended in freezing medium (10% DMSO, 90% FCS) at 1.0E+07 cells/ml and stored in liquid nitrogen.
(§4) 1×10⁵ CD14+ isolated human monocytes (50 μl/well) were put into 98 well-v bottom MTP in fresh culture medium and incubated with Redimune® NF Liquid for 15 min at RT to block unspecific binding. […] After washing and centrifugation MFI signals of stained cells were analyzed by BD Biosciences FACSCanto flow cytometer.

[10] = molecular target: T6, human TIM-3 on cells; experiment: cell-based or functional assay
[11] = molecular target: T6, human TIM-3 on cells; experiment: flow cytometry, human CD14+ monocytes donor1
Description: as §3, §4

[12] = molecular target: T7, cynomolgus TIM-3 on isolated cyno CD14+ monocytes (cynomolgus); experiment: flow cytometry, cyno CD14+ monocytes cyno1
T7 construct: whole, on cells
Description: (§5) CD14+ Monocytes were isolated from cynomolgus monkey anticoagulated peripheral blood (Covance) by density gradient centrifugation using Ficoll-Paque (GE Healthcare) (see General Protocols in the User Manuals or visit www.miltenyibiotec.com/protocols) and subsequent positive selection via NHP CD14 MicroBeads. First the CD14+ cells are magnetically labeled with CD14 MicroBeads. Then the cell suspension is loaded onto a MACS® Column which is placed in the magnetic field of a MACS Separator. The magnetically labeled CD14+ cells are retained in the column. The unlabeled cells run through, this cell fraction is depleted of CD14+ cells. After removal of the column from the magnetic field, the magnetically retained CD14+ cells can be eluted as the positively selected cell fraction. After centrifugation at 200×g for 10 min at room temperature the monocytes were harvested and used directly in binding assay or resuspended in freezing medium (10% DMSO, 90% FCS) at 1.0E+07 cells/ml and stored in liquid nitrogen.
(§6) 1×10⁵ CD14+ isolated cyno monocytes (50 μl/well) were put into 98 well-v bottom MTP in fresh culture medium and incubated with Redimune® NF Liquid for 15 min at RT to block unspecific binding. Than 50 μl/well of Alexa488 labeled anti-TIM3 (10 μg/ml in cell culture medium) were added and incubated for 1 h at 4° C. After washing and centrifugation MFI signals of stained cells were analyzed by BD Biosciences FACSCanto flow cytometer.

[13] = molecular target: T7, cynomolgus TIM-3 on isolated cyno CD14+ …; experiment: flow cytometry, cyno CD14+ monocytes cyno3
Description: as §5, §6

[14] = molecular target: T6, human TIM-3 on cells; experiment: cell-based or functional assay; remark: listed apart in the source
[15] = molecular target: T6, human TIM-3 on cells; experiment: flow cytometry, human CD14+ monocytes donor3
Description: as §3, §4

[16] = molecular target: T7, cynomolgus TIM-3 on isolated cyno CD14+ …; experiment: flow cytometry, cyno CD14+ monocytes cyno2
Description: as §5, §6

human FolR2 on transiently transfected HEK cells, sequence (P14207 17-230 limits assumed): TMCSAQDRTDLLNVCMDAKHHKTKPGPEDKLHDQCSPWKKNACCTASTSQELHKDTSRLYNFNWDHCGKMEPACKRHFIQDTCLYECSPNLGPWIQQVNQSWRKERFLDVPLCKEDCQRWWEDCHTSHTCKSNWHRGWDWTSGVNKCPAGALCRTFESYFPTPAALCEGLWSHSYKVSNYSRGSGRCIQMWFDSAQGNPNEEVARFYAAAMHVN

B1: 15A1 Fab (Fab, V domains shown)
VH: QVQLVQSGAEVKKPGASVKVSCKASGYTFTSYYMHWVRQAPGQGLEWMGIINPSGGSTSYAQKFQGRVTMTRDTSTSTVYMELSSLRSEDTAVYYCARNYYIGVVTFDYWGQGTLVTVSS
VL: QAVVTQEPSLTVSPGGTVTLTCGSSTGAVTTSNYANWVQEKPGQAFRGLIGGTNKRAPGTPARFSGSLLGGKAALTLSGAQPEDEAEYYCALWYSNLWVFGGGTKLTVL
Kd [1]: 17.3 nM
binding result [2]: no binding
binding result [3]: no binding
Kd [4]: 30.9 nM

B2: 21A5 IgG (antibody, V domains shown)
VH: not shown
VL: B1 VL
notes: human IgG1
binding result [5]: no binding (tested: 500 nM)
binding result [6]: no binding (tested: 500 nM)
binding result [7]: no binding

B3: 18D3 Fab (Fab, V domains shown)
VH: QVQLVQSGAEVKKPGASVKVSCKASGYTFTSYYMHWVRQAPGQGLEWMGIINPSGGSTSYAQKFQGRVTMTRDTSTSTVYMELSSLRSEDTAVYYCARNYYTGGSSAFDYWGQGTLVTVS
VL: B1 VL
Kd [1]: 40.2 nM
binding result [2]: no binding
binding result [3]: no binding
Kd [4]: 93.6 nM

B4: 18D3 IgG (antibody, V domains shown)
VH: B3 VH
VL: B1 VL
notes: human IgG1
binding result [8]: no binding (tested: 500 nM)
binding result [5]: no binding (tested: 500 nM)

B5: 16A3 Fab (Fab, V domains shown)
VH: B1 VH with I102A, V105T, T106P
VL: B1 VL
Kd [1]: 18 nM
binding result [2]: no binding
binding result [3]: no binding
Kd [4]: 21.7 nM

B6: 15H7 IgG (antibody, V domains shown)
VH: B1 VH with I102L, G103F, V104S, V105T, T106S
VL: B1 VL
notes: human IgG1
binding result [8]: no binding (tested: 500 nM)
binding result [5]: no binding (tested: 500 nM)

B7: 16F12 IgG (antibody, V domains shown)
VH: B1 VH with Y100F, Y101T, I102V, G103L, V104R, T106P
VL: B1 VL
notes: human IgG1
binding result [8]: no binding (tested: 500 nM)
binding result [5]: no binding (tested: 500 nM)
binding result [6]: no binding (tested: 500 nM)

B8: 21G8 IgG (antibody, V domains shown)
VH: not shown
VL: B1 VL
notes: human IgG1
binding result [6]: no binding (tested: 500 nM)
binding result [7]: binds

B9: 15H7 Fab (Fab, V domains shown)
VH: B1 VH with I102L, G103F, V104S, V105T, T106S
VL: B1 VL
Kd [1]: 72.5 nM
binding result [2]: no binding
binding result [3]: no binding

B10: 19A4 Fab (Fab, V domains shown)
VH: B1 VH with N99G, Y100G, Y101W, G103R, V104W, V105E, T106H
VL: B1 VL
Kd [1]: 4250 nM
Kd [4]: 2050 nM

B11: 20G6 Fab (Fab, V domains shown)
VH: B1 VH with N99G, Y100E, Y101W, G103R, V104Y, V105Y, T106H
VL: B1 VL
binding result [1]: no binding
binding result [2]: no binding
binding result [3]: no binding
binding result [4]: no binding

B12: 19E5 Fab (Fab, V domains shown)
VH: B1 VH with N99G, Y100E, Y101W, I102R, G103R, V104Y, V105T, T106S
VL: B1 VL
Kd [1]: 276 nM

B13: 21D1 Fab (Fab, V domains shown)
VH: B1 VH with I102V, V105S, T106P
VL: B1 VL
Kd [1]: 32.1 nM
binding result [2]: no binding
binding result [3]: no binding
Kd [4]: 62.6 nM

B14: 21D1 IgG (antibody, V domains shown)
VH: B1 VH with I102V, V105S, T106P
VL: B1 VL
notes: human IgG1
binding result [8]: no binding (tested: 500 nM)
binding result [5]: no binding (tested: 500 nM)

B15: 16A3 IgG (antibody, V domains shown)
VH: B1 VH with I102A, V105T, T106P
VL: B1 VL
notes: human IgG1
binding result [8]: no binding (tested: 500 nM)
binding result [5]: no binding (tested: 500 nM)

B16: 15B6 IgG (antibody, V domains shown)
VH: B1 VH with V104I, T106P
VL: B1 VL
notes: human IgG1
binding result [8]: no binding (tested: 500 nM)
binding result [5]: no binding (tested: 500 nM)
binding result [6]: no binding (tested: 500 nM)

B17: 19H3 Fab (Fab, V domains shown)
VH: B1 VH with N99T, Y100G, Y101W, I102S, G103R, V104W, V105G, T106Y, F107M
VL: B1 VL
binding result [1]: no binding
binding result [2]: no binding
binding result [3]: no binding
binding result [4]: no binding

B18: 6B6 IgG (antibody, V domains shown)
VH: QVQLVQSGAEVKKPGASVKVSCKASGYTFTSYYMHWVRQAPGQGLEWMGIINPSGGSTSYAQKFQGRVTMTRDTSTSTVYMELSSLRSEDTAVYYCARSYVDMDYWGQGTLVTVSS
VL: EIVLTQSPGTLSLSPGERATLSCRASQSVSSSYLAWYQQKPGQAPRLLIYGASSRATGIPDRFSGSGSGTDFTLTISRLEPEDFAVYYCQQDIWSPTFGQGTKVEIK
notes: human IgG1
binding result [6]: no binding (tested: 500 nM)

B19: Tim3_0028 (antibody, V domains shown)
VH: EVQLQQSVAELVRPGASVKLSCTASGFNIKTTYMHWVKQRPEQGLEWIGRIDPADDNTKYAPKFQGKATITADTSSNTAYLQLSSLTSEDAAIYYCVRDFGYVAWFAYWGQGTLVTFSA
VL: NIVMTPTPKFLPVSSGDRVTMTCRASQSVDNYVAWYQQKPGQSPKLLIYYASNRYIGVPDRFTGSGSGTDFTFTISSVQVEDLAVYFCQQHYSSPYTFGSGTKLEIK
specific binding MFI [9]: 950 MFI
internalization at 30 Min, RPMI-8226 [10]: 50%
internalization at 60 Min, RPMI-8226 [10]: 59%
internalization at 120 Min, RPMI-8226 [10]: 67%
internalization at 240 Min, RPMI-8226 [10]: 68%
internalization at 26 h, RPMI-8226 [10]: 83%
specific binding MFI [11]: 1350 MFI
MFI [12]: 3940 MFI
MFI [13]: 4090 MFI
IFN-gamma release in MLR at 1 µg/ml, % of IL-2 control [14]: 12%
specific binding MFI [15]: 1610 MFI
MFI [16]: 3000 MFI

B20: Tim3_0038 (antibody, V domains shown)
VH: EVQLQQSGAEPLKPGASVKLTCTTSGFNIKDYYIHWVKQRSDQGLEWIGRIDPEDGELIYAPKFQDKATITVDTSSNIAYLQLNSLTSEDTAVYYCSRDHGYVGWFAYWGQGTLVTVSA
VL: NVVMTQSPKSMIMSVGQRVTLNCKASENVDTYVSWYQQKPEQSPKLLIYGASNRYTGVPDRFTGSRSATDFTLTISSVQAEDLAVYYCGQSYSYPWTFGGGTKLEFR
specific binding MFI [9]: 1370 MFI
specific binding MFI [11]: 1640 MFI
MFI [12]: 97 MFI
MFI [13]: 120 MFI
IFN-gamma release in MLR at 1 µg/ml, % of IL-2 control [14]: 1%
IFN-gamma release in MLR at 10 µg/ml, % of IL-2 control [14]: 38%
IFN-gamma release in MLR at 40 µg/ml, % of IL-2 control [14]: 51%
specific binding MFI [15]: 1400 MFI
MFI [16]: 107 MFI
